Reference: publication PMC2915561 (Biochemistry, 2010)
Substitutions are numbered along the chain they refer to. Names may count otherwise.

B1: LovK (25–138), isolated LOV core (domain or fragment, Caulobacter crescentus, UniProt Q9ABE3 25-138, looked up)
chain: AAAISATRMAMIVADATQPDIPIIFANDAFLRLTGYARDEVIGRNCRFLQGPDTDPKAIQAVRDALAAGEDVAVDLLNYRKDGSPFWNALNMSPVRNDAGQLVYFFGSQVDVTD
B2: LovK (1–163) (domain or fragment, Caulobacter crescentus, UniProt Q9ABE3 1-163, looked up)
chain: MEDYSESRRAGERLAAGHGVDDPFAAAISATRMAMIVADATQPDIPIIFANDAFLRLTGYARDEVIGRNCRFLQGPDTDPKAIQAVRDALAAGEDVAVDLLNYRKDGSPFWNALNMSPVRNDAGQLVYFFGSQVDVTDKKVVELRARDHSDGLQQMVEERTRE
B3: LovK (1–138) (domain or fragment, Caulobacter crescentus, UniProt Q9ABE3 1-138, looked up)
chain: MEDYSESRRAGERLAAGHGVDDPFAAAISATRMAMIVADATQPDIPIIFANDAFLRLTGYARDEVIGRNCRFLQGPDTDPKAIQAVRDALAAGEDVAVDLLNYRKDGSPFWNALNMSPVRNDAGQLVYFFGSQVDVTD
B4: LovK (1–368), full-length Caulobacter crescentus LOV-histidine kinase (enzyme, UniProt Q9ABE3 1-368, looked up)
chain: MEDYSESRRAGERLAAGHGVDDPFAAAISATRMAMIVADATQPDIPIIFANDAFLRLTGYARDEVIGRNCRFLQGPDTDPKAIQAVRDALAAGEDVAVDLLNYRKDGSPFWNALNMSPVRNDAGQLVYFFGSQVDVTDKKVVELRARDHSDGLQQMVEERTRELTEALKQKTALLHEVDHRVKNNLQLISSLLLLQNRRVPDPAVKASLRGMLGRVNAIATVHRRLFQSEDVERFDVSAFIRDMVADLMGSAMRDDIRVELDLERVEIPAAKAAPLALVVNELLTNALRHGFPEGRGGRIFVGLSRLNGDFRIEITDDGVGQDRETRASGFGLTIVQLLCQQLKAKWETTDAEPGTRVVVLLPINGTQ
B5: LovK C70A (1–368), full-length "blind" mutant (enzyme, Caulobacter crescentus, UniProt Q9ABE3 1-368, looked up)
chain: B4 chain with C70A
B6: LovK (25–163) (domain or fragment, Caulobacter crescentus, UniProt Q9ABE3 25-163, looked up)
chain: AAAISATRMAMIVADATQPDIPIIFANDAFLRLTGYARDEVIGRNCRFLQGPDTDPKAIQAVRDALAAGEDVAVDLLNYRKDGSPFWNALNMSPVRNDAGQLVYFFGSQVDVTDKKVVELRARDHSDGLQQMVEERTRE

Experiments:
[1] = target: the molecule itself; assay: SEC
[2] = target: the molecule itself; assay: SEC; remark: listed apart in the source
[3] = target: the molecule itself; assay: SAXS

| Protein | stoichiometry N [1] | other results |
| --- | --- | --- |
| B1 | 2 |  |
| B2 | 2 |  |
| B3 | 2 |  |
| B4 |  | stoichiometry N [2]: 2 |
| B5 |  | stoichiometry N [3]: 2 |
| B6 | 2 |  |
